Experimental data: patent US20060029601A1 (E R SQUIBB AND SONS L L C, published 2006)

B1: murine anti-IFNAR-1 antibody 64G12 (ECACC Deposit No. 92022605) (antibody, V domains shown)
VH: QVTLKESGPGILKPSQTLSLTCSFSGFSLSTSGMGIGWIRQPSGKGLEWLAHIWWDDDKYYNPSLKSQLTISRDTSTNQVFLNITSVDTVDTATYYCGRNYYPYDAWFDYWGQGTLVTVS
VL: EIVLTQSPTTMAASPGEKITITCSASSSINSNHLHWYQQKPGFSPKVLIYRTSILASGVPTRFSGSGSGTSYSLTIGTMEAEDVATYYCQQGSNIPFTFGSGTELEIKR
B2: human monoclonal antibody 4G5 (antibody, IgG1, V domains shown)
VH: QVQLQQWGAGLLKPSETLSLTCAVYGGSFSNYYWSWIRQPPGKGLEWIGEIILSGSTNYNPSLKSRVTISVDTSKNQFSLNLTSVTAADTAVYYCARESKWGYYFDSWGQGTLVTVSS
VL: AIQLTQSPSSLSASVGDRVTITCRATQDISIALVWYQQKPGKAPELLIYDASGLGSGVPSRFSGSGSGTDFTLTISSLQPEDFATYYCQQFNSYPYTFGQGTKLEIK
B3: human monoclonal antibody 11E2 (antibody, IgG1, V domains shown)
VH: EVQLVQSGAEVKKPGESLKISCKGSGYIFTNYWIAWVRQMPGKGLESMGIIYPGDSDIRYSPSFQGQVTISADKSITTAYLQWSSLKASDTAMYYCARHDIEGFDYWGRGTLVTVSS
VL: EIVLTQSPGTLSLSPGERATLSCRASQSVSSSFFAWYQQKPGQAPRLLIYGASSRATGIPDRLSGSGSGTDFTLTITRLEPEDFAVYYCQQYDSSAITFGQGTRLEIK
B4: human monoclonal antibody 9D4 (antibody, IgG1, V domains shown)
VH: B3 VH
VL: B3 VL
B5: human monoclonal antibody 3F11 (antibody, IgG1, V domains shown)
VH: QVQLQQWGAGLLKPSETLSLTCAVYGGSFSGYFWSWIRQPPGKGLEWIGEIDHSGKTNYNPSLKSRVTISVDTSKNQVSLKLSSVTAADTAVYYCARESKYYFGLDVWGQGTTVTVTS
VL: AIQLTQSPSSLSASVGDRVTITCRASQGIYSVLAWYQQKPGKTPKLLIYDASRLESGVPSRFSGSGSGTDFTLTISSLQPEDFATYYCQQFNSYITFGQGTRLEIK

Experiments:
[1] = biological target: T1, human interferon alpha receptor 1 (IFNAR-1) on cells (Daudi, U937, human peripheral blood mononuclear cells) (human, UniProt P17181 28-557); assay: cell-based or functional assay
T1 sequence (looked up): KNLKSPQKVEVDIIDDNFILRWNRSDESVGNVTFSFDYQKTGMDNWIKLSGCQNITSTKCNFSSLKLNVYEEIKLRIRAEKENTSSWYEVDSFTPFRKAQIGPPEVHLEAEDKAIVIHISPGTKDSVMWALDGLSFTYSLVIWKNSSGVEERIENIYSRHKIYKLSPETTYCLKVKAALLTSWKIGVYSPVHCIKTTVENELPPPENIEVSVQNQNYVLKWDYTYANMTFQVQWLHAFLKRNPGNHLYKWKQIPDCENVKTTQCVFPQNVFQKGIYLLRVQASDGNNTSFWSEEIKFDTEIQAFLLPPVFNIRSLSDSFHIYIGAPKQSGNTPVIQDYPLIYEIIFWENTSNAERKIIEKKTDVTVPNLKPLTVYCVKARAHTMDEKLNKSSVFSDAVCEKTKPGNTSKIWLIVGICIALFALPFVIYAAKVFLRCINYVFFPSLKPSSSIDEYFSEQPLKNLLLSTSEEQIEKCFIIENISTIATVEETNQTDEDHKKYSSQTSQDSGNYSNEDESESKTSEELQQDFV

[2] = biological target: T1, human interferon alpha receptor 1 …; assay: cell-based or functional assay; remark: listed apart in the source
[3] = biological target: T2, soluble CHO-derived human IFNAR-1 (human, UniProt P17181 28-436); assay: cross-competition ELISA on plate-coated soluble CHO-derived human IFNAR-1; titrated antibody against 64G12 at 0.3 ug/mL as competitor, detected with anti-mouse IgG (Fc) peroxidase, O.D. 415 nm
T2 construct: extracellular domain; also called soluble IFNAR-1
T2 sequence (looked up): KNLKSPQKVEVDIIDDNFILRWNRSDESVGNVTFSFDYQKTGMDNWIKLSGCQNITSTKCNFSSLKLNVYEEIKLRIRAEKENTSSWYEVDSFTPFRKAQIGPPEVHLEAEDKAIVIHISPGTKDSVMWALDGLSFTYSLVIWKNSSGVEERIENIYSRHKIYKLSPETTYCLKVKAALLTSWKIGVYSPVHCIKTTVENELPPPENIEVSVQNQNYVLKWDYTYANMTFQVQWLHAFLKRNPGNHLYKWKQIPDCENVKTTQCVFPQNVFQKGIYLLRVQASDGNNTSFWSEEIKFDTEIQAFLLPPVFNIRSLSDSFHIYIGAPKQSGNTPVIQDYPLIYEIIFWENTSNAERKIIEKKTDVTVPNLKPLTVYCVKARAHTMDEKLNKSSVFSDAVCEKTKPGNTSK

Row | Cell Proliferation (Daudi) EC50, blocking of IFN alpha 2b [1] [nM] | ISRE-RG Reporter (U937) EC50, blocking of IFN alpha 2b [1] [nM] | Cell Proliferation (Daudi) EC50, blocking of IFN omega [2] [nM] | IC50 (read off the curve) [3] [µg/mL] | Binder
1 | 3.1 | 6 | 5.5 | ~0.7 | B1
2 |  |  | 1.4 |  | B2
3 |  |  | 0.3 |  | B3
4 |  |  | 0.3 |  | B4
5 | 0.3 | 1.2 | 0.6 |  | B5
